The source of these data is article PMC10786891, “Massively parallel profiling of RNA-targeting CRISPR-Cas13d”.

First the molecules themselves.
B1: target 1 insU 3' of 6,insG 3' of 1 (mixed)
RNA 1: CACCCGUGCAAAAAUGCAGGGGUCUAAAACUGAGCGGAUAACCUCUCUAUGG
RNA 2: GGGAAUGGAUCCACAUCUACGAAUUCGUACCAUAGAGAGGUUAUCCUGCUCAGCCGAGAUCGGAAGAGCACACGU
B2: target 1 G5C,G15A (mixed)
RNA 1: B1 RNA 1
RNA 2: GGGAAUGGAUCCACAUCUACGAAUUCGUACCAUAGAAAGGUUAUCCCCUCACCGAGAUCGGAAGAGCACACGU
B3: target 1 insC 3' of 20,insC 3' of 5 (mixed)
RNA 1: B1 RNA 1
RNA 2: GGGAAUGGAUCCACAUCUACGAAUUCGUACCACUAGAGAGGUUAUCCGCCUCACCGAGAUCGGAAGAGCACACGU
B4: target 1 insA 3' of 22,insA 3' of 10 (mixed)
RNA 1: B1 RNA 1
RNA 2: B3 RNA 2 with C31A, A32C, C33A, U45A, C46U, G48C, C49G
B5: target 1 insU 3' of 9,insC 3' of 3 (mixed)
RNA 1: B1 RNA 1
RNA 2: B1 RNA 2 with C45U, U47C, A52C, G53A
B6: target 1 insC 3' of 13,insC 3' of 10 (mixed)
RNA 1: B1 RNA 1
RNA 2: GGGAAUGGAUCCACAUCUACGAAUUCGUACCAUAGAGAGCGUUCAUCCGCUCACCGAGAUCGGAAGAGCACACGU
B7: target 1 insC 3' of 9,insC 3' of 9 (mixed)
RNA 1: B1 RNA 1
RNA 2: B6 RNA 2 with C40G, G41U, U43A, A45C
B8: target 1 U3G,A18G (mixed)
RNA 1: B1 RNA 1
RNA 2: B2 RNA 2 with A34G, A37G, C47G, U49G
B9: target 1 insC 3' of 14,insC 3' of 14 (mixed)
RNA 1: B1 RNA 1
RNA 2: B6 RNA 2 with G39C, U42G, C44U
B10: target 1 C7A,U10A (mixed)
RNA 1: B1 RNA 1
RNA 2: B2 RNA 2 with A37G, U42A, C45A, C47G
B11: target 1 insC 3' of 18,insU 3' of 9 (mixed)
RNA 1: B1 RNA 1
RNA 2: B3 RNA 2 with C33U, U34A, A35C, C46U, G48C, C49G
B12: target 1 U11G,G17U (mixed)
RNA 1: B1 RNA 1
RNA 2: B2 RNA 2 with G35U, A37G, U41G, C47G
B13: target 1 A1U,A9G (mixed)
RNA 1: B1 RNA 1
RNA 2: B2 RNA 2 with A37G, A43G, C47G, A51U
B14: target 1 complement block 2-8 (mixed)
RNA 1: B1 RNA 1
RNA 2: B2 RNA 2 with A37G, U44A, C45G, C46G, C48G, U49A, C50G
B15: target 1 A1G,A9G (mixed)
RNA 1: B1 RNA 1
RNA 2: B2 RNA 2 with A37G, A43G, C47G, A51G
B16: target 1 G5A,A9U (mixed)
RNA 1: B1 RNA 1
RNA 2: B2 RNA 2 with A37G, A43U, C47A
B17: target 1 A9U,U10G (mixed)
RNA 1: B1 RNA 1
RNA 2: B2 RNA 2 with A37G, U42G, A43U, C47G
B18: target 1 G5A,U8C (mixed)
RNA 1: B1 RNA 1
RNA 2: B2 RNA 2 with A37G, U44C, C47A
B19: target 1 insU 3' of 14,insA 3' of 11 (mixed)
RNA 1: B1 RNA 1
RNA 2: B6 RNA 2 with G39U, C40G, U43A, C44U
B20: target 1 insA 3' of 19,insU 3' of 4 (mixed)
RNA 1: B1 RNA 1
RNA 2: B3 RNA 2 with C33U, U34A, C50U
B21: target 1 insA 3' of 15,insA 3' of 8 (mixed)
RNA 1: B1 RNA 1
RNA 2: B6 RNA 2 with G39A, C40G, C44A, A45U, U46A
B22: target 1 C7U,U19G (mixed)
RNA 1: B1 RNA 1
RNA 2: B2 RNA 2 with U33G, A37G, C45U, C47G
B23: target 1 del2,del14 (mixed)
RNA 1: B1 RNA 1
RNA 2: GGGAAUGGAUCCACAUCUACGAAUUCGUACCAUAGAGGGUUAUCCGCUACCGAGAUCGGAAGAGCACACGU
B24: target 1 U8C,C21A (mixed)
RNA 1: B1 RNA 1
RNA 2: B2 RNA 2 with C31A, A37G, U44C, C47G
B25: target 1 complement block 4-11 (mixed)
RNA 1: B1 RNA 1
RNA 2: B2 RNA 2 with A37G, U41A, U42A, A43U, U44A, C45G, C46G, C48G
B26: target 1 del14,del16 (mixed)
RNA 1: B1 RNA 1
RNA 2: GGGAAUGGAUCCACAUCUACGAAUUCGUACCAUAGGGGUUAUCCGCUCACCGAGAUCGGAAGAGCACACGU
B27: target 1 C2G,G5A (mixed)
RNA 1: B1 RNA 1
RNA 2: B2 RNA 2 with A37G, C47A, C50G
B28: target 1 insU 3' of 20,insG 3' of 10 (mixed)
RNA 1: B1 RNA 1
RNA 2: B3 RNA 2 with C33U, A44G, U45A, C46U, G48C, C49G
B29: target 1 A1C,C4U (mixed)
RNA 1: B1 RNA 1
RNA 2: B2 RNA 2 with A37G, C47G, C48U, A51C
B30: target 1 A1G,C4U (mixed)
RNA 1: B1 RNA 1
RNA 2: B2 RNA 2 with A37G, C47G, C48U, A51G
B31: target 1 insC 3' of 18,insA 3' of 3 (mixed)
RNA 1: B1 RNA 1
RNA 2: B3 RNA 2 with C33U, U34A, A35C, C50U, U51A
B32: target 1 G13A,C21A (mixed)
RNA 1: B1 RNA 1
RNA 2: B2 RNA 2 with C31A, A37G, G39A, C47G
B33: target 1 A1C,A9G (mixed)
RNA 1: B1 RNA 1
RNA 2: B2 RNA 2 with A37G, A43G, C47G, A51C

Numbering of substitutions follows the chain as printed. Names may count otherwise.

For the data set, the target named is T1, EsCas13d, nuclease-dead (Eubacterium siraeum, UniProt B0MS50, R295A;H300A;R849A;H854A).
T1 sequence: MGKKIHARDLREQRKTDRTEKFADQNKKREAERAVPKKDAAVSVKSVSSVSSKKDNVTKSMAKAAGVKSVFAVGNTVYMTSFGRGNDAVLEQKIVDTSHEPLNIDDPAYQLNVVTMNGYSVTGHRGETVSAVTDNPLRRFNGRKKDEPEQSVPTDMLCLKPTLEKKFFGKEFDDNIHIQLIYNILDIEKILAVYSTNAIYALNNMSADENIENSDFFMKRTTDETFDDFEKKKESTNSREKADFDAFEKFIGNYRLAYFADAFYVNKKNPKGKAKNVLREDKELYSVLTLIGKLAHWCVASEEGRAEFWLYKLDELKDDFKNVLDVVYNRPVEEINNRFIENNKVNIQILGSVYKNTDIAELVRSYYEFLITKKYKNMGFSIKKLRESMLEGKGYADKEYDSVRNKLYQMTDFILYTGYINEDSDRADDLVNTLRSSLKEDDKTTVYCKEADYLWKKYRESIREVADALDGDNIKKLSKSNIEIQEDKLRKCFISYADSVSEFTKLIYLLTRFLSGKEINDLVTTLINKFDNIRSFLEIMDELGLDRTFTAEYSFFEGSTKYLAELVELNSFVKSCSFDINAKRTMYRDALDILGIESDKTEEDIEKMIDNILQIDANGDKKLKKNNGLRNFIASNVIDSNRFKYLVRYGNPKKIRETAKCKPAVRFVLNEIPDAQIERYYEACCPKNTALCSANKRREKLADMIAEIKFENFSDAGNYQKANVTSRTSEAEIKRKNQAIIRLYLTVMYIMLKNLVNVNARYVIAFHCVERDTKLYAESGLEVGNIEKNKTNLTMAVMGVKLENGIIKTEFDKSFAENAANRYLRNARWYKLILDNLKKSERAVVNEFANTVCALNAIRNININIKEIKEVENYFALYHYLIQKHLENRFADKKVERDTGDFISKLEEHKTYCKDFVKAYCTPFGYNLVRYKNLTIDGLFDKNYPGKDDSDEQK
The data set is described as follows: crRNA (strand 1, pre-loaded); Mg2+; 40 mM Tris-HCl pH 7.5, 150 mM NaCl, 6 mM MgCl2, 1 mM DTT, 0.1% Tween-20, 0.2 mg/ml BSA; 25 C; 10 min per concentration, then washed. The following applies: tags: His6-TwinStrep-SUMO cleaved; N-terminal SNAP kept (SNAP-Surface 488); label: 3' end held by stalled T7 RNA polymerase.
By Kd is commonly meant the free concentration of one partner at which half of the binding sites on the other are occupied at equilibrium, for simple one-to-one binding. Low readings indicate a tighter complex, high ones a looser complex. For B1, the Kd worked out at 12.5 ± 0.8 nM.
As for B2, the figure is 19.9 ± 1.8 nM; as for B3, 5.23 ± 0.33 nM.
On to B4, for which the Kd was 14.6 ± 1 nM.
The figure for B5 is 16.3 ± 1.1 nM.
As for B6, the figure is 12.9 ± 1.3 nM.
The molecule B7 displayed a Kd of 10.7 ± 0.7 nM.
As for B8, the figure is 87 ± 23 nM; as for B9, 42 ± 4 nM.
B10: binding was characterised by a dissociation constant (Kd) of 8.48 ± 0.31 nM. Against the preceding molecule, the Kd is about 5-fold lower.
As for B11, the figure is 51 ± 11 nM; as for B12, 47 ± 5 nM; as for B13, 13.1 ± 1.3 nM.
In turn, B14 gave a Kd of 10.5 ± 0.5 nM. The Kd values of the last two molecules are within 1.5-fold of each other.
The figure for B15 is 12.6 ± 0.5 nM.
Take B16: the affinity, expressed as Kd, was 29.7 ± 1.8 nM.
As for B17, the figure is 21.7 ± 2.1 nM; as for B18, 15.3 ± 0.7 nM; as for B19, 54 ± 10 nM.
The figure for B20 is 17.9 ± 0.9 nM; for B21 it is 7.4 ± 0.4 nM; for B22 it is 57 ± 7 nM.
The figure for B23 is 64 ± 11 nM; for B24 it is 44 ± 5 nM; for B25 it is 12.4 ± 0.6 nM.
Regarding B26, the Kd came to 84 ± 17 nM.
The figure for B27 is 35 ± 5 nM; for B28 it is 29 ± 6 nM; for B29 it is 9.8 ± 1.2 nM.
The figure for B30 is 31 ± 5 nM; for B31 it is 23.9 ± 1.2 nM.
As for B32, the figure is 35 ± 4 nM.
Turning to B33, the Kd amounted to 21.2 ± 3.4 nM.
